± gives the standard deviation.

37 sequences from the supplement of paper PMC10567573 can be followed below.

The nature of the data set: protein stability index of a GFP-peptide fusion (GPS, HEK-293T) (PSI 1-6); higher = more stable. Conditions: c terminus: a fixed tail appended.
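Further: 24-mer peptide tiles fused after GFP, lentivirally expressed, FACS-sorted into six equal bins by GFP/DsRed ratio, decoded by Illumina sequencing, PSI is the read-weighted mean bin number.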

On to CDECGKHFSQGSALILHQRIHSGE [ZNF24], for which the protein stability index came out at 5.16 ± 0.2 (treatment: DMSO) and 5.43 ± 0.2 (treatment: MLN4924 1 uM, 8 h).

CDPGLTAFEPEALGNLVEGMDFHR [CAMK2D]: the protein stability index turned out to be 4.33 ± 0.43 (treatment: DMSO) and 4.21 ± 0.24 (treatment: MLN4924 1 uM, 8 h). With CDSTNAAIAKQALKKPIKGKQAPR [KMT5A], the protein stability index (treatment: DMSO) was found to be 4.79 ± 0.22 and the protein stability index (treatment: MLN4924 1 uM, 8 h) worked out at 4.74 ± 0.29. CEHICVNSDDSYTCECLEGFRLAE [MATN2]: the protein stability index was determined as 4.11 ± 0.69 (treatment: DMSO) and 4.71 ± 0.62 (treatment: MLN4924 1 uM, 8 h).

As to CEKFLQEVDFFQRYFIADLPHLQD [INTS4], the protein stability index stood at 2.49 ± 0.54 (treatment: DMSO) and 1.95 ± 0.48 (treatment: MLN4924 1 uM, 8 h).

CFPRLDINVSKGINHLLKSPFSVH [PRIM1]: the protein stability index reads like this: (treatment: DMSO) 2.14 ± 0.68; (treatment: MLN4924 1 uM, 8 h) 2.05 ± 0.36. For CFVEFHEHRHAAAALAAMNGRKIM [TIA1] the same measures were 2.71 ± 0.14 and 2.81 ± 0.17. For the sequence CGRKLAKDGEYCWRWTGFNFGFDL [GMCL1], the protein stability index came to 2.72 ± 0.54 (treatment: DMSO) and 2.71 ± 0.91 (treatment: MLN4924 1 uM, 8 h).

For the sequence CINRFQQVESRWGYSGTSDRIRFT [BTBD1], the protein stability index (treatment: DMSO) was found to be 1.8 ± 0.12 and the protein stability index (treatment: MLN4924 1 uM, 8 h) was 2.07 ± 0.31. For CMSFNPETRRLSIGLDNGTISEFI [WDFY2] the same measures were 2.42 ± 0.56 and 2.89 ± 0.38. On the same counts, the results for CPPLHIPGSMSEVQELCKQLHAKI [TNNI2] are 2.88 ± 0.3 and 2.93 ± 0.14. Turning to CPVVRNGSVAVVEAECEKSSATTY [SLC6A17], the protein stability index (treatment: DMSO) worked out at 4.64 ± 0.44 and the protein stability index (treatment: MLN4924 1 uM, 8 h) was 4.82 ± 0.17.

For the sequence CRPLQFQPSKSHKKVLKKMLKFLA [ATE1], where the note is “treatment: MLN4924 1 uM, 8 h”, the protein stability index was determined as 3.43 ± 0.17. In the case of DALNRRKAQLLARVNKEHEHKLKV [TRIM9], the protein stability index amounted to 3.47 ± 0.11 (treatment: DMSO) and 3.29 ± 0.092 (treatment: MLN4924 1 uM, 8 h). Take DALSSPTSVQEADETTRSDISERP [C2CD2L]: the protein stability index was found to be 5.64 ± 0.35 (treatment: DMSO) and 5.61 ± 0.24 (treatment: MLN4924 1 uM, 8 h). As for DANLLNDRVLRAMLKAEETCAPSV [CCND1], the protein stability index (treatment: DMSO) amounted to 3.33 ± 0.34 and the protein stability index (treatment: MLN4924 1 uM, 8 h) was determined as 3.61 ± 0.23. For DATWAAVAACTKEIDTQGRHLAHS [C10orf62] the same measures were 4.04 ± 0.24 and 4.09 ± 0.39.

For the sequence DAWSGSNAYHIERLMSFRPICSAN [CRYBA1], the protein stability index turned out to be 2.46 ± 0.26 (treatment: DMSO) and 2.55 ± 0.26 (treatment: MLN4924 1 uM, 8 h). As to DCEVFRQRFRQFQYREAAGPHEAF [ZNF449], the protein stability index was determined as 2.94 ± 0.29 (treatment: DMSO) and 2.93 ± 0.28 (treatment: MLN4924 1 uM, 8 h). For DCMAALGLAYDRKKVSKAAILARI [SCD], the protein stability index worked out at 1.94 ± 0.3 (treatment: DMSO) and 2.29 ± 0.2 (treatment: MLN4924 1 uM, 8 h).

In the case of DDKLFQKLAKVYSYAHGWMFQGWN [CPN1], the protein stability index is, setting by setting: (treatment: DMSO) 2.45 ± 0.51; (treatment: MLN4924 1 uM, 8 h) 2.25 ± 0.45. Take DDLVPKGKKFLLLSINRYERKKNL [ALG2]: the protein stability index runs as follows: (treatment: DMSO) 2.58 ± 0.092; (treatment: MLN4924 1 uM, 8 h) 2.67 ± 0.29. DDSCQDQPGTNCALAIKVNLCGHW [ADAMTSL2]: the protein stability index reads like this: (treatment: DMSO) 2.57 ± 0.1; (treatment: MLN4924 1 uM, 8 h) 2.65 ± 0.46. Turning to DEDDSTSRFSSSTEQSSASRLMRR [DVL3], the protein stability index reads like this: (treatment: DMSO) 5.28 ± 0.25; (treatment: MLN4924 1 uM, 8 h) 5.36 ± 0.26. For the sequence DEKAKPRDRQQAPGLGQESKAPGS [TLE6], the protein stability index amounted to 5.49 ± 0.21 (treatment: DMSO) and 5.49 ± 0.21 (treatment: MLN4924 1 uM, 8 h). DEPQETAYRTQVSSCCLHICQGIR [PKD2L1] had a protein stability index (treatment: DMSO) of 2.8 ± 0.61 and a protein stability index (treatment: MLN4924 1 uM, 8 h) of 3.1 ± 0.46. On the same counts, the results for DFWLNMAALTEALQRQAEQNPTAS [FCHO1] are 2.51 ± 0.21 and 2.47 ± 0.35.

DGGEPQSVQVDGQARTQKLQGLIP [TNXB] showed a protein stability index (treatment: MLN4924 1 uM, 8 h) of 5.22 ± 0.99. In the case of DHPGTPPHKTFRKLRLFDTPHTPK [WEE1], the protein stability index runs as follows: (treatment: DMSO) 3.88 ± 0.11; (treatment: MLN4924 1 uM, 8 h) 3.98 ± 0.15. With DISIHHFTCDEENVFAAVGRGLYV [WDR41], the protein stability index was determined as 2.7 ± 0.35 (treatment: DMSO) and 2.61 ± 0.43 (treatment: MLN4924 1 uM, 8 h). For DISLGQKEDGEPSWREAKVSWFGS [PWWP2B] the same measures were 3.15 ± 0.14 and 3.39 ± 0.14. For DKCSAPKIWRTPNGKTIEMDTQFT [IQUB] the same measures were 3.53 ± 0.28 and 3.6 ± 0.21. Consider DKENIYILLEYCSRRSMAHILKAR [PLK2], for which the protein stability index is 2.2 ± 0.29 (treatment: DMSO) and 2.55 ± 0.43 (treatment: MLN4924 1 uM, 8 h). In the case of DKFVATMYHYLQFAYYKLNDVRQA [P3H4], the protein stability index turned out to be 2.75 ± 0.39 (treatment: DMSO) and 2.77 ± 0.47 (treatment: MLN4924 1 uM, 8 h). For DLEEERREEEEKTPPETKPDPPVN [PCMTD2] the same measures were 5.64 ± 0.37 and 5.48 ± 0.48.

For the sequence DLMVEATPRRVFANAHTYHINSIS [PPP2R2B], the protein stability index (treatment: DMSO) turned out to be 2.58 ± 0.23 and the protein stability index (treatment: MLN4924 1 uM, 8 h) was found to be 2.49 ± 0.3.

For DMRRDEEGSLCAAHLPKAQLSGYA [FBF1], the protein stability index (treatment: DMSO) turned out to be 4.12 ± 0.25 and the protein stability index (treatment: MLN4924 1 uM, 8 h) amounted to 4.15 ± 0.25.
